Target: Smlt3024 (Stenotrophomonas maltophilia K279a) (UniProt B2FJJ5)
Assay: SEC-MALS; Superdex 200 10/300 GL coupled to a Wyatt MALS detector; isolated proteins and their mixture analysed, peaks checked by SDS-PAGE; dn/dc = 0.185 mL/g

Smlt3025_(86-333) (domain or fragment)
stoichiometry N (Smlt3024:Smlt3025 (86-333) ratio): 1

From paper PMC6759196
